In assay [1] the target is T1, monomeric recombinant KAAG1 (human, UniProt Q9UBP8 1-84, limits assumed).
T1 construct: Analyte of the Biacore experiment
T1 sequence: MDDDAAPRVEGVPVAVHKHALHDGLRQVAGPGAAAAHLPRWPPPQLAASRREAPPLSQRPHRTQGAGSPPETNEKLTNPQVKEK
In words: SPR (Biacore); antibody captured on anti-human Fc, monomeric KAAG1 injected, 1:1 fit, average KD; chimeric light chain, humanized heavy chain (CH). On the procedure:
(§1) More precise measurements were conducted using Surface Plasmon Resonance (SPR) in a Biacore instrument. Kinetic analysis was used to compare the affinity of the chimeric 3D3 with the h3D3 as well as with hybrid antibodies encompassing different permutations of the light and heavy chains (see FIG. 18B). Briefly, anti-human Fc was immobilized on the Biacore sensor chip and chimeric or h3D3 was captured on the chip. Different concentrations of monomeric recombinant KAAG1 were injected and the data were globally fitted to a simple 1:1 model to determine the kinetic parameters of the interaction.
In general terms: SPR reads the build-up and loss of mass on a sensor chip optically.

For assay [2], the target named is T1, monomeric recombinant KAAG1. Briefly: SPR (Biacore), antibody captured on anti-human Fc, monomeric KAAG1 injected, 1:1 model. The procedure:
as §1

Assay [3] has the same target. Briefly: SPR (Biacore); antibody captured on anti-human Fc, monomeric KAAG1 injected, 1:1 fit, average KD; humanized light and heavy chains (HH). The procedure: as §1
Assay [4] concerns the target T2, recombinant Fc-KAAG1 fusion protein (full-length human KAAG1 fused to human Fc, from pYD5-0447 in 293E cells) (human, UniProt Q9UBP8 1-84, biotinylated with NHS-biotin for the ELISA (sites not given)).
T2 construct: Order of parts follows the printed name Fc-KAAG1; also called recombinant KAAG1; not shown: its limits and the linker to KAAG
T2 sequence: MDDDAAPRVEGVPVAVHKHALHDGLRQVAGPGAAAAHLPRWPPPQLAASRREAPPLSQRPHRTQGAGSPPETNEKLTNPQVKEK
Briefly: ELISA, 1 ng Fab/well on Fc-KAAG1 [D00012 Figure 7C]. The procedure: (§2) The 96-well master plate of monoclonal preparations contained different concentrations of purified anti-KAAG1 Fabs in each well. A second stock master plate was prepared by diluting the Fabs to a final concentration of 10 μg/ml from which all subsequent dilutions were performed for ELISA measurements. To carry out the binding of Fc-KAAG1 to the monoclonal preparations, the Fc-KAAG1 was biotinylated with NHS-biotin (Pierce, Rockford, Ill.) and 10 ng/well was coated in a streptavidin 96-well plate. One nanogram of each Fab monoclonal preparation was added to each well and incubated at room temperature for 30 minutes. Bound antibody was detected with HRP-conjugated mouse anti-kappa light chain antibody in the presence of TMB liquid substrate (Sigma-Aldrich Canada Ltd., Oakville, ON) and readings were conducted at 450 nm in microtiter plate reader.

For a further assay, the target named is Fc-0447 1-60 (human) (UniProt Q9UBP8). In words: ELISA, Fab plate on Fc-0447 1-60. In general terms: An ELISA detects its analyte on a solid surface through an enzyme-linked reagent.
Assay [5] deals with T3, Fc-fused truncated mutant of KAAG1 spanning amino acids 1-35 (human).
T3 construct: Made and purified like the full-length Fc-KAAG1; also called KAAG1 1-35
T3 chain: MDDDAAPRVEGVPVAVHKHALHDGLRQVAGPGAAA
In words: ELISA, Fab plate on Fc-0447 1-35.

In assay [6] the target is T2, recombinant Fc-KAAG1 fusion protein …. Briefly: ELISA on recombinant Fc-KAAG1. On the procedure:
as §2
Expression of human IgG1s in 293E cells—The expression vectors prepared above that encoded the light and heavy chain immunoglobulins were expressed in 293E cells using the transient transfection system (Durocher et al., 2002). The methods used for co-transfecting the light and heavy chain expression vectors were described in Example 5. […] The ability of the chimeric anti-KAAG1 monoclonal antibodies to bind to recombinant Fc-KAAG1 was measured in the ELISA and compared with the original mouse Fabs. The method was described in Example 5. […]

Assay [7] deals with T1, monomeric recombinant KAAG1. Briefly: SPR (Biacore); antibody captured on anti-human Fc, monomeric KAAG1 injected, 1:1 fit, average KD; chimeric 3D3 tabulated as m3D3 in FIG. 18B. The procedure:
as §1

Assay [8] addresses T2, recombinant Fc-KAAG1 fusion protein …. Briefly: ELISA on recombinant Fc-KAAG1. The source holds these as a separate data set.
Assay [9] has as its target T1, monomeric recombinant KAAG1. In words: SPR (Biacore); antibody captured on anti-human Fc, monomeric KAAG1 injected, 1:1 fit, average KD; chimeric light + chimeric heavy chain co-expressed, 'CC' of the permutation set. On the procedure: as §1
The target is the same in assay [10]. In words: SPR (Biacore); antibody captured on anti-human Fc, monomeric KAAG1 injected, 1:1 fit, average KD; humanized light chain, chimeric heavy chain (HC). The procedure: as §1

“And” between values parts separate entries of the source, which are not always exact repeats. Identical values can stand only once. Like-named read-outs stand apart in the source and are kept apart here.

B1: 3D3 hybrid antibody: chimeric light chain expressed with the humanized heavy chain (antibody, human IgG1, V domains shown)
VH: EVQLVQSGAEVKKPGASVKVSCKASGYIFTDYEIHWVRQAPGQGLEWMGVIDPETGNTAFNQKFKGRVTITADTSTSTAYMELSSLTSEDTAVYYCMGYSDYWGQGTLVTVSS
VL: DIVMTQSPSSLAVSIGQKVTMNCKSSQSLLNSNFQKNFLAWYQQKPGQSPKLLIYFASTRESSIPDRFIGSGSGTDFTLTISSVQAEDLADYFCQQHYSTPLTFGAGTKLELKA
A word on the Kd: it is the equilibrium constant for the complex coming apart. What is called koff is the first-order rate constant of dissociation. By kon is commonly meant the rate constant with which the complex forms. As to B1, in [1], the Kd amounted to 0.505 nM. Besides, in assay [2], the Ka amounted to 1.98e+09 M⁻¹, the koff is 0.00111 s⁻¹ and the association rate constant (kon) came to 2.2e+06 M⁻¹ s⁻¹.

B2: humanized 3D3 anti-KAAG1 antibody (human IgG1) (antibody, V domains shown)
VH: EVQLVQSGAEVKKPGASVKVSCKASGYIFTDYEIHWVRQAPGQGLEWMGVIDPETGNTAFNQKFKGRVTITADTSTSTAYMELSSLTSEDTAVYYCMGYSDYWGQGTLVTVSS
VL: DIVMTQSPDSLAVSLGERATINCKSSQSLLNSNFQKNFLAWYQQKPGQPPKLLIYFASTRESSVPDRFSGSGSGTDFTLTISSLQAEDVAVYYCQQHYSTPLTFGQGTKLEIKR
notes: The residues before them (leader) are left out on that ground; also called h3D3; HH
Take B2: the Kd in [3] was 0.439 nM. For the same molecule, in assay [2], the Ka was 2.28e+09 M⁻¹, the koff amounted to 0.00111 s⁻¹ and the kon is 2.53e+06 M⁻¹ s⁻¹.

B3: 3C4 mouse anti-KAAG1 Fab (Fab, V domains shown)
VH: EVQLQESGPDLVKPSQSLSLTCTVTGFSITSGYGWHWIRQFPGNKLEWMGYINYDGHNDYNPSLKSRISITQDTSKNQFFLQLNSVTTEDTATYYCASSYDGLFAYWGQGTLVTVSA
VL: DIVMSQSPSSMYASLGERVTITCKASQDIHNFLNWFQQKPGKSPKTLIFRANRLVDGVPSRFSGSGSGQDYSLTISSLEFEDLGIYSCLQYDEIPLTFGAGTKLELR
notes: Recombinant mouse Fab made in E. coli; also called 3C4 Fab
With B3, the OD450 in assay [4] worked out at 0.25 OD450; with Fc-0447 1-60 (human), 0.57 OD450.

B4: anti-KAAG1 Fab of well C2 (plate from Omniclonal library #3) (Fab, V domains shown)
VH: DVQLQESGPDLVKPSQSLSLTCTVTGFSITSGYGWHWIRQFPGNKLEWMGYISFNGDSNYNPSLKSRISITRDTSKNQFFLQLNSVTSEDTATYYCASSYDGLFAYWGQGPLVTVSA
VL: DIQMTQSPSSMYASLGERVTLTCKASQDIHNYLNWFQQKPGKSPKTLIHRANRLVAGVPSRFSGSGSGQDYSLTISSLEYEDLGIYYCLQYDAFPLTFGAGTKLELK
With B4, the OD450 in assay [4] is 0.32 OD450; in [5], 1.97 OD450.

B5: anti-KAAG1 Fab of well D1 (plate from Omniclonal library #3) (Fab, V domains shown)
VH: EVQLQESGPDLVKPSQSLSLTCTVTGFSITSGYGWHWIRQFPGDKLEWMGYISFNGDYNYNPSLKSRISITRDTSKNQFFLQLSSVTTEDTATYYCASSYDGLFAYWGQGTLVTVSA
VL: DIKMTQSPSSMYASLGERVTITCKASQDIHTYLNWFQQKPGKSPETLIYRANRLVDGVPSRFSGSGSGQDYSLTISSLEYEDMGIYYCLQYDEFPLTFGAGTKLELK
On to B5, for which the OD450 turned out to be 0.15 OD450 in [4] and 1.21 OD450 in assay [5].

B6: 3G10 mouse anti-KAAG1 Fab (Fab, V domains shown)
VH: EIQLQQSGPELVKPGASVKISCKASGYTFTDNYMNWVKQSHGKSLEWIGDINPYYGTTTYNQKFKGKATLTVDKSSRTAYMELRGLTSEDSAVYYCARDDWFDYWGQGTLVTVSA
VL: DVLMTQTPRSLSVSLGDQASISCRSSQSLLHSNGNTYLEWYLQKPGQPPKVLIYKVSNRFSGVPDRFSGSGSGTDFTLKISGVEAEDLGVYYCFQGSHVPLTFGAGTKLELK
notes: Recombinant mouse Fab made in E. coli; also called 3G10 Fab
Take B6: the OD450 in assay [4] was 2.78 OD450.

B7: anti-KAAG1 Fab of well E10 (plate from Omniclonal library #3) (Fab, V domains shown)
VH: EVQLQQSGPELVKPGASVKISCKASGDTFTDYYMNWVKQSHGKSLEWIGDINPNYGGITYNQKFKGKATLTVDTSSSTAYMELRGLTSEDSAVYYCQAYYRNSDYWGQGTTLTVSS
VL: DIVMTQAAPSVPVTPGESVSISCRSSKSLLHSNGNTYLYWFLQRPGQSPQLLIYRMSNLASGVPDRFSGSGSGTAFTLRISRVEAEDVGVYYCMQHLEYPYTFGGGTKLEIK
As for B7, the figures for the OD450 (in [4]; in [5]; in the assay with Fc-0447 1-60 (human)) were 0.02 OD450, 0.33 OD450 and -0.02 OD450, respectively.

B8: 3D3 mouse anti-KAAG1 Fab (Fab, V domains shown)
VH: EVQLQQSVAELVRPGASVTLSCKASGYIFTDYEIHWVKQTPVHGLEWIGVIDPETGNTAFNQKFKGKATLTADISSSTAYMELSSLTSEDSAVYYCMGYSDYWGQGTTLTVSS
VL: DIVMTQSPSSLAVSIGQKVTMNCKSSQSLLNSNFQKNFLAWYQQKPGQSPKLLIYFASTRESSIPDRFIGSGSGTDFTLTISSVQAEDLADYFCQQHYSTPLTFGAGTKLELK
notes: Recombinant mouse Fab made in E. coli; also called 3D3 Fab
Broadly, the EC50 (read off the curve) is the concentration giving half of the maximal effect. Consider B8, for which the OD450 in [4] stood at 1.21 OD450; with Fc-0447 1-60 (human), 1.33 OD450. In assay [6], the “EC50 (read off the curve)” value was approximately 0.5 µg/mL.

B9: 3D3 mouse-human chimeric IgG1 anti-KAAG1 monoclonal antibody (antibody, V domains shown)
VH: EVQLQQSVAELVRPGASVTLSCKASGYIFTDYEIHWVKQTPVHGLEWIGVIDPETGNTAFNQKFKGKATLTADISSSTAYMELSSLTSEDSAVYYCMGYSDYWGQGTTLTVSS
VL: DIVMTQSPSSLAVSIGQKVTMNCKSSQSLLNSNFQKNFLAWYQQKPGQSPKLLIYFASTRESSIPDRFIGSGSGTDFTLTISSVQAEDLADYFCQQHYSTPLTFGAGTKLELKA
notes: Mouse variable regions on human IgG1 and kappa constant regions, made in 293E cells; In the Biacore experiment two KD values are told for this composition, under the labels m3D3 and CC; also called chimeric 3D3; m3D3
For B9, the equilibrium dissociation constant (Kd) in [7] was 0.235 nM. Further, in assay [8], the “EC50 (read off the curve)” value was approximately 0.4 µg/mL. Further, in [9], the Kd turned out to be 0.271 nM. In addition, in assay [2], the Ka is 4.5e+09 M⁻¹ and 2.71e+09 M⁻¹; the Kd was 0.368 nM; the koff is 0.00065 s⁻¹ and 0.00073 s⁻¹; the kon is 2.91e+06 M⁻¹ s⁻¹ and 1.98e+06 M⁻¹ s⁻¹.

B10: G12 (Fab, V domains shown)
VH: EVQLQQSVAELVRPGASVTVSCKASGYIFTDYEIHWVKQTPAHGLEWIGVIDPETGNTAFNQKFKGKATLTADISSSTAYMELSSLTSEDSAVYYCMGYSDYWGQGTTLTVSS
VL: DIVMTQSPKFMSTSVGDRVSITCKASQDVGTAVAWYQQKPGQSPELLIYWTSTRHTGVPDRFSGSGSGTDFTLTISSVQAEDLADYFCQQHYSIPLTFGAGTKLELR
For the molecule B10, the OD450 in assay [4] was found to be 1.38 OD450.

B11: 3D3 hybrid antibody: humanized light chain expressed with the chimeric heavy chain (antibody, V domains shown)
VH: EVQLQQSVAELVRPGASVTLSCKASGYIFTDYEIHWVKQTPVHGLEWIGVIDPETGNTAFNQKFKGKATLTADISSSTAYMELSSLTSEDSAVYYCMGYSDYWGQGTTLTVSS
VL: DIVMTQSPDSLAVSLGERATINCKSSQSLLNSNFQKNFLAWYQQKPGQPPKLLIYFASTRESSVPDRFSGSGSGTDFTLTISSLQAEDVAVYYCQQHYSTPLTFGQGTKLEIKR
notes: also called HC
Consider B11, for which the Kd in assay [10] was determined as 0.309 nM. Further, in assay [2], the Ka turned out to be 3.24e+09 M⁻¹, the koff worked out at 0.00073 s⁻¹ and the kon is 2.36e+06 M⁻¹ s⁻¹.

The record behind these values is patent US20120128661A1 (ALETHIA BIOTHERAPEUTICS, published 2012).
